B1: DCAF4 (parent)
chain: PGIDRPGMLCSFRIPGAWSCAWSL
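Also: lentivirally expressed fusions sorted by FACS into six bins by GFP to DsRed ratio, PSI derived from sequencing read proportions per bin multiplied by bin number.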

Variants of B1 are the subject of this data set. Briefly: protein stability index of a GFP-peptide fusion (GPS, HEK-293T) (PSI 1-6); higher = more stable. Conditions: c terminus: a fixed tail appended.
In the case of PGIDRPGMLCSFRAPGAWSCAWSL [I14A], the protein stability index came to 1.77. Consider PGIDRPGMLCSFRDPGAWSCAWSL [I14D], for which the protein stability index stood at 2.83. In the case of PGIDRPGMLCSFRCPGAWSCAWSL [I14C] it was 1.79.

Consider PGIDRPGMLCRFRIPGAWSCAWSL [S11R], for which the protein stability index is 3.98. The value for PGIDRPGMLCMFRIPGAWSCAWSL [S11M] was 2.95.

As for PGIDRPGMLCYFRIPGAWSCAWSL [S11Y], the protein stability index is 3.16. Take PGIDRPGMLCQFRIPGAWSCAWSL [S11Q]: the protein stability index was found to be 2.82. The value for PGIDRPGMLCGFRIPGAWSCAWSL [S11G] was 3.07; that for PGIDRPGMLCFFRIPGAWSCAWSL [S11F] was 3.19; that for PGIDRPGMLCPFRIPGAWSCAWSL [S11P] was 3.14.

Take PGIDRPGMLCDFRIPGAWSCAWSL [S11D]: the protein stability index is 2.44. In the case of PGIDRPGMLCKFRIPGAWSCAWSL [S11K] it was 2.81; in that of PGIDRPGMLCLFRIPGAWSCAWSL [S11L], 2.81. With PGIDRPGMLCVFRIPGAWSCAWSL [S11V], the protein stability index is 1.85.

With PGIDRPGMLCAFRIPGAWSCAWSL [S11A], the protein stability index worked out at 3.01. In the case of PGIDRPGMLCEFRIPGAWSCAWSL [S11E] it was 2.68. The value for PGIDRPGMLCHFRIPGAWSCAWSL [S11H] was 3.42; that for PGIDRPGMLCTFRIPGAWSCAWSL [S11T] was 1.56. In the case of PGIDRPGMLCCFRIPGAWSCAWSL [S11C], the protein stability index came out at 2.19. With PGIDRPPMLCSFRIPGAWSCAWSL [G7P], the protein stability index stood at 2.83.

Consider PGIDRPIMLCSFRIPGAWSCAWSL [G7I], for which the protein stability index amounted to 3.13. The value for PGIDRPSMLCSFRIPGAWSCAWSL [G7S] was 3.09.

Consider PGIDRPQMLCSFRIPGAWSCAWSL [G7Q], for which the protein stability index was 2.63.

For the variant PGIDRPWMLCSFRIPGAWSCAWSL [G7W], the protein stability index was 2.23.

PGIDRPRMLCSFRIPGAWSCAWSL [G7R]: the protein stability index turned out to be 2.05. The value for PGIDRPHMLCSFRIPGAWSCAWSL [G7H] was 2.09; that for PGIDRPFMLCSFRIPGAWSCAWSL [G7F] was 4.52. The value for PGIDRPTMLCSFRIPGAWSCAWSL [G7T] was 3.46.

In the case of PGIDRPDMLCSFRIPGAWSCAWSL [G7D], the protein stability index stood at 2.11. For PGIDRPKMLCSFRIPGAWSCAWSL [G7K], the protein stability index stood at 2.7.

Turning to PGIDRPYMLCSFRIPGAWSCAWSL [G7Y], the protein stability index was determined as 2.28. In the case of PGIDRPNMLCSFRIPGAWSCAWSL [G7N] it was 2.67; in that of PGIDRPAMLCSFRIPGAWSCAWSL [G7A], 2.7. PGIDRPMMLCSFRIPGAWSCAWSL [G7M]: the protein stability index was 2.31. In the case of PGIDRPVMLCSFRIPGAWSCAWSL [G7V] it was 2.84; in that of PGIDRPGMLCSFVIPGAWSCAWSL [R13V], 2.94.

As for PGIDRPGMLCSFCIPGAWSCAWSL [R13C], the protein stability index is 2.03. With PGIDRPGMLCSFLIPGAWSCAWSL [R13L], the protein stability index was found to be 3.69. The value for PGIDRPGMLCSFGIPGAWSCAWSL [R13G] was 2.33; that for PGIDRPGMLCSFHIPGAWSCAWSL [R13H] was 2.34. In the case of PGIDRPGMLCSFTIPGAWSCAWSL [R13T], the protein stability index was determined as 3.39. Turning to PGIDRPGMLCSFEIPGAWSCAWSL [R13E], the protein stability index was 3.65. PGIDRPGMLCSFFIPGAWSCAWSL [R13F]: the protein stability index turned out to be 2.68. The value for PGIDRPGMLCSFSIPGAWSCAWSL [R13S] was 2.59; that for PGIDRPGMLCSFYIPGAWSCAWSL [R13Y] was 2.9. Regarding PGIDRPGMLCSFPIPGAWSCAWSL [R13P], the protein stability index turned out to be 3.03.

PGIDRPGMLCSFDIPGAWSCAWSL [R13D]: the protein stability index was determined as 1.97.

In the case of PGIDRPGMLCSFIIPGAWSCAWSL [R13I], the protein stability index is 3.22.

As for PVIDRPGMLCSFRIPGAWSCAWSL [G2V], the protein stability index is 1.85. The value for PCIDRPGMLCSFRIPGAWSCAWSL [G2C] was 3.1. As for PRIDRPGMLCSFRIPGAWSCAWSL [G2R], the protein stability index worked out at 3.78. In the case of PFIDRPGMLCSFRIPGAWSCAWSL [G2F] it was 1.6; in that of PQIDRPGMLCSFRIPGAWSCAWSL [G2Q], 2.39. With PLIDRPGMLCSFRIPGAWSCAWSL [G2L], the protein stability index worked out at 2.54. In the case of PYIDRPGMLCSFRIPGAWSCAWSL [G2Y] it was 3; in that of PDIDRPGMLCSFRIPGAWSCAWSL [G2D], 3.96. In the case of PSIDRPGMLCSFRIPGAWSCAWSL [G2S] it was 2.55; in that of PPIDRPGMLCSFRIPGAWSCAWSL [G2P], 1.94. The value for PKIDRPGMLCSFRIPGAWSCAWSL [G2K] was 2.19; that for PIIDRPGMLCSFRIPGAWSCAWSL [G2I] was 2.26. Take PHIDRPGMLCSFRIPGAWSCAWSL [G2H]: the protein stability index came to 3.15. In the case of PWIDRPGMLCSFRIPGAWSCAWSL [G2W] it was 1.83.

For the variant PTIDRPGMLCSFRIPGAWSCAWSL [G2T], the protein stability index was 2.59. In the case of PMIDRPGMLCSFRIPGAWSCAWSL [G2M] it was 3.72; in that of PGIDAPGMLCSFRIPGAWSCAWSL [R5A], 2.47. For the variant PGIDDPGMLCSFRIPGAWSCAWSL [R5D], the protein stability index worked out at 3.46. In the case of PGIDNPGMLCSFRIPGAWSCAWSL [R5N] it was 3.74. On to PGIDGPGMLCSFRIPGAWSCAWSL [R5G], for which the protein stability index turned out to be 2.74. On to PGIDVPGMLCSFRIPGAWSCAWSL [R5V], for which the protein stability index was 1.94. Consider PGIDIPGMLCSFRIPGAWSCAWSL [R5I], for which the protein stability index came out at 1.87. In the case of PGIDMPGMLCSFRIPGAWSCAWSL [R5M] it was 3.37; in that of PGIDCPGMLCSFRIPGAWSCAWSL [R5C], 2.89.

On to PGIDEPGMLCSFRIPGAWSCAWSL [R5E], for which the protein stability index stood at 3.11. Consider PGIDQPGMLCSFRIPGAWSCAWSL [R5Q], for which the protein stability index stood at 3.37. On to PGIDLPGMLCSFRIPGAWSCAWSL [R5L], for which the protein stability index amounted to 2.46. The value for PGIDPPGMLCSFRIPGAWSCAWSL [R5P] was 2.75; that for PGIDYPGMLCSFRIPGAWSCAWSL [R5Y] was 2.76. For the variant PGIDKPGMLCSFRIPGAWSCAWSL [R5K], the protein stability index was 2.04. In the case of PGIDFPGMLCSFRIPGAWSCAWSL [R5F] it was 3.57; in that of PGIDRPGMLCSQRIPGAWSCAWSL [F12Q], 2.67; in that of PGIDRPGMLCSVRIPGAWSCAWSL [F12V], 3.38.

In the case of PGIDRPGMLCSKRIPGAWSCAWSL [F12K], the protein stability index came to 1.79.

As to PGIDRPGMLCSSRIPGAWSCAWSL [F12S], the protein stability index worked out at 2.7. Regarding PGIDRPGMLCSGRIPGAWSCAWSL [F12G], the protein stability index is 2.29. On to PGIDRPGMLCSLRIPGAWSCAWSL [F12L], for which the protein stability index worked out at 2.62. In the case of PGIDRPGMLCSHRIPGAWSCAWSL [F12H] it was 2.68. In the case of PGIDRPGMLCSCRIPGAWSCAWSL [F12C] it was 3.41; in that of PGIDRPGMLCSERIPGAWSCAWSL [F12E], 2.5.

For PGIDRPGMLCSDRIPGAWSCAWSL [F12D], the protein stability index is 2.19. Take PGIDRPGMLCSNRIPGAWSCAWSL [F12N]: the protein stability index was determined as 2.87. The value for PGIDRPGMLCSWRIPGAWSCAWSL [F12W] was 4.14; that for PGIDRPGMLCSPRIPGAWSCAWSL [F12P] was 3.71; that for PGIDRPGMLCSIRIPGAWSCAWSL [F12I] was 2.26.

With PGIDRPGMLCSTRIPGAWSCAWSL [F12T], the protein stability index was 2.12.

These data come from the supplement of paper PMC10567573.
